Results on ten molecules are retold here after patent US10428327B2, “Compositions and methods for enhancing homologous recombination” (LIFE TECHNOLOGIES CORPORATION, priority 2016, dated 2019).

For data set [1], the system named is disrupted EmGFP stable cell lines. Briefly: Homologous recombination (HDR) assay, gain of EmGFP function by flow cytometry. In kind it is cell-based. The following applies: for Avg (% GFP+ cells): sequential delivery. As to the method: The JUMP-IN™ system was used to prepare […]™ HEK293 stable cell expressing EmGFP (Thermo Fisher Scientific). The gene sequence of EmGFP is described in Table 5. To create a disrupted EmGFP mutant stable cell line, a gRNA targeting the 5′-[…]-3′ (SEQ ID NO: 125) sequence in EmGFP gene was synthesized. The resulting gRNA (300 ng) was incubated with 1.5 μg of GENEART® […]™ Cas9 nuclease and used to transfect wild type EmGFP cells via electroporation. The single cell clonal isolation was carried out by limiting dilution. The EmGFP loci from non-glowing cells were amplified by PCR using a forward primer 5′-[…]-3′ (SEQ ID NO: 126) and a reverse primer 5′-[…]-3′ (SEQ ID NO: 127) and the resulting PCR products were subjected to TOPO cloning and sequencing. From these clones, a disrupted EmGFP stable cell line containing a deletion of 5′-CACCTT-3′ (SEQ ID NO: 25) was identified (Table 5). In the homologous recombination assay, the gain of EmGFP function was determined by flow cytometric analysis.
(§1) To create homologous recombination (HR) assays, a series of gRNAs flanking the insertion site within the EmGFP gene were designed and synthesized (Table 4). Each individual gRNA was combined with GENEART™ […]™ Cas9 Nuclease to form the Cas9 protein/gRNA ribonucleoprotein complexes (Cas9 RNPs). The Cas9 RNPs were then used to transfect cells via NEON® electroporation. The genomic cleavage efficiency was then evaluated using the GENEART® Genomic Cleavage Detection kit at 48 hours post transfection. The gRNAs with highest editing efficiencies and also in close proximity to the insertion site were selected for the subsequent HR assays. For donor design of a single-stranded oligonucleotide, typically the mutation site was positioned at the center flanked by 30 to 50 nucleotides on each side. For asymmetric donor design, 30 nucleotides were placed on either the left or right arm and then 50 or 67 nucleotides on the right or left arm respectively, in both PAM and non-PAM strands. For design of a dsDNA oligonucleotide with single-stranded overhangs, the insertion element was overlapped in the center flanked by various lengths of ssDNA oligonucleotide on each side. By annealing two single-stranded oligonucleotides at 95° C. for 3 minutes, dsDNA donor molecules with either a 5′ protrusion or a 3′ protrusion were generated. To measure homologous recombination efficiency, the donor DNA was either co-transfected with Cas9 RNPs or delivered sequentially into cells via electroporation. At 48 hours post transfection, the gain of EmGFP function in reporter cell lines was determined by flow cytometric analysis with an Attune® NxT Acoustic Focusing Cytometer (Thermo Fisher Scientific). Alternatively, the genomic loci were PCR-amplified using the corresponding primers and then subjected to GENEART® Genomic Cleavage Detection assay or restriction digestion. The resulting PCR products were also subjected to TOPO cloning. Typically, 96 colonies were randomly picked for sequencing. The sequencing data were analyzed using VECTOR NTI ADVANCE® 11.5 software (Thermo Fisher Scientific).
For each homologous recombination assay, 1.5 μg of Cas9 protein and 360 ng of gRNA were added to Resuspension Buffer R to a final volume of 7 μl, but limiting the total volume of Cas9 protein plus gRNA to less than 1 μl. The gRNA could be diluted in Buffer R if the concentration was too high. Upon mixing, the sample was incubated at room temperature for 5 to 10 minutes to form Cas9 RNPs. Meanwhile, […]™ HEK293 cells expressing either eBFP or disrupted EmGFP were detached from culture flask with TRYPLE™ Express Enzyme and then counted. Aliquots of 1×10^6 cells were washed once with DPBS without Ca^2+ and Mg^2+ and the cell pellets were resuspended in 50 μl of Resuspension Buffer R. A 5 μl aliquot of cell suspension was mixed with 7 μl of Cas9 RNPs. […] The electroporated cells were transferred to 300 μl of […]. […]

The test system of data set [2] is eBFP locus in HEK293 cells expressing eBFP. In words: EcoRI restriction digestion of PCR-amplified eBFP locus (FLAG tag/EcoRI insertion). The following applies: FIG. 11B, length of 3′ overhang, 48 hours. In kind it is cell-based.
Text: FIG. 11. Insertion of a FLAG tag along with an EcoRI site using dsDNA donor with single-stranded overhangs. (A) Various donor DNA molecules containing a 30-base FLAG tag along with an EcoRI site were designed and synthesized, including single-stranded DNA donor (ssDNA), blunt-end dsDNA donor (blunt), dsDNA donor with 5′ overhang (5′), dsDNA donor with 3′ overhang (3′). The length of overhangs varied from 6 nucleotides (6), 15 nucleotides (15) to 30 nucleotides (30). The 3′ and 5′ ends of the oligonucleotides harbored two consecutive phosphorothioate-modified bases (Table 4). The short dsDNA donors with and without overhangs were prepared by annealing two short DNA oligonucleotides. […] At 48 hours post transfection, the eBFP locus was PCR-amplified. The resulting PCR fragments were analyzed by the genomic cleavage and detection assays to determine the percentage of Indel or subjected to restriction digestion with EcoRI to determine the percentage of digestion. (B) Length of 3′ overhang. […] Alternatively, a dsDNA donor with 30-base 3′ overhang but without phosphorothioate modification (30-3′n) was used. The percentage of digestion with EcoRI was determined at 48 hours post transfection. (C) Dose effect. […] The eBFP loci were PCR-amplified. The resulting PCR fragments were analyzed by EcoRI digest. (D) Sequencing verification. The PCR fragments were cloned into E. coli and 192 clones were randomly picked for sequencing. The relative percentage of wild type (wt), NHEJ, and HDR clones derived from either ssDNA donor (ssDNA) or dsDNA with 3′ overhangs (3′ overhang) was plotted. The white rectangles represented the population of clones that contained the insert but with a point mutation. Examples of edited clones were shown in (E) (not representing the actual percentages of NHEJ and HDR). The underlined sequences represented the FLAG tag along with an RI site. FIG. 11 discloses SEQ ID NOs: 15-24, respectively, from top to bottom.
as §1, with “The sequencing data were analyzed using VECTOR NTI ADVANCE® 11.5 software (Thermo Fisher Scientific).” left out

Where [3] appears, read: Equal Mass of donor, +5 gRNA, 6 nt insertion.
Where [4] appears, read: Equal Molarity of donor, +5 gRNA, 6 nt insertion.

Oligonucleotides are written 5' to 3', each unit as a sugar letter and its base; * is a phosphorothioate linkage, no mark a phosphodiester; rarer units and linkages stand in square brackets, end groups in braces. Plain capitals give the bases only. d = 2'-deoxy (DNA)

For “40: unmodified 40-mer PAM ssDNA donor, EmGFP, SEQ ID 43 (DNA GGCGAAGCACTGCACGCCGTAGGTGAAGGTGGTCACGAGG; DNA, backbone not given here) [compound 40]”, the results for the “Avg (% GFP+ cells)” value in data set [1] (setting [3]) and in data set [1] (setting [4]) were 2.96% and 1.38%, respectively.

Turning to “PS40: phosphorothioate 40-mer PAM ssDNA donor, EmGFP, SEQ ID 42 (DNA GGCGAAGCACTGCACGCCGTAGGTGAAGGTGGTCACGAGG; 5' phosphate, chemistry not fully specified)”, the “Avg (% GFP+ cells)” value in data set [1] (setting [3]) turned out to be 4.35%; in data set [1] (setting [4]) it was 1.79%.

B1: 30-51 P: asymmetric PAM strand ssDNA donor, EmGFP, SEQ ID 67 (nucleic acid)
DNA: CCGTGCCCTGGCCCACCCTCGTGACCACCTTCACCTACGGCGTGCAGTGCTTCGCCCGCTACCCCGACCACATGAAGCAGC
modifications: chemistry not given here
Take B1: the “Avg (% GFP+ cells)” value in data set [1] ((+3) gRNA, 10 pmol ssDNA donor) is reported as 4.0%; in data set [1] ((+5) gRNA, 10 pmol ssDNA donor) it was 30.6%; in data set [1] ((−3) gRNA, 10 pmol ssDNA donor) it was 34.7%.

B2: 48-50 NP: symmetric non-PAM strand ssDNA donor, EmGFP, SEQ ID 70 (nucleic acid)
DNA: GTGCTGCTTCATGTGGTCGGGGTAGCGGGCGAAGCACTGCACGCCGTAGGTGAAGGTGGCACGAGGGTGGGCCAGGGCACGGGCAGCTTGCCGGTGG
modifications: DNA, backbone and methylation of C not given here; further chemistry not fully specified
As to B2, the “Avg (% GFP+ cells)” value in data set [1] ((+3) gRNA, 10 pmol ssDNA donor) amounted to 9.5%; in data set [1] ((+5) gRNA, 10 pmol ssDNA donor), 26.0%; in data set [1] ((−3) gRNA, 10 pmol ssDNA donor) it was 18.3%. For the same molecule, the “Avg (% GFP+ cells), normalized HDR efficiency (% EmGFP+ cells/% Indel)” value in data set [1] ((+5)gRNA) came out at 38.2%; in data set [1] ((−3)gRNA) it was 26.1%.

B3: 30-51 NP: asymmetric non-PAM strand ssDNA donor, EmGFP, SEQ ID 68 (nucleic acid)
DNA: GCTGCTTCATGTGGTCGGGGTAGCGGGCGAAGCACTGCACGCCGTAGGTGAAGGTGGTCACGAGGGTGGGCCAGGGCACGG
modifications: chemistry not given here
As for B3, the “Avg (% GFP+ cells)” value in data set [1] ((+3) gRNA, 10 pmol ssDNA donor) is on record as 11.3%; in data set [1] ((+5) gRNA, 10 pmol ssDNA donor), 20.6%; in data set [1] ((−3) gRNA, 10 pmol ssDNA donor), 23.7%.

B4: 50-30 P: asymmetric PAM strand ssDNA donor, EmGFP, SEQ ID 65 (nucleic acid)
DNA: CCACCGGCAAGCTGCCCGTGCCCTGGCCCACCCTCGTGACCACCTTCACCTACGGCGTGCAGTGCTTCGCCCGCTACCCCG
modifications: DNA, backbone and methylation of C not given here; further chemistry not fully specified
With B4, the “Avg (% GFP+ cells)” value came out at 8.7% in data set [1] ((+3) gRNA, 10 pmol ssDNA donor); 19.7% in data set [1] ((+5) gRNA, 10 pmol ssDNA donor); 24.6% in data set [1] ((−3) gRNA, 10 pmol ssDNA donor).

B5: 50-30 NP: asymmetric non-PAM strand ssDNA donor, EmGFP, SEQ ID 66 (nucleic acid)
DNA: CGGGGTAGCGGGCGAAGCACTGCACGCCGTAGGTGAAGGTGGTCACGAGGGTGGGCCAGGGCACGGGCAGCTTGCCGGTGG
modifications: chemistry not given here
For the molecule B5, the “Avg (% GFP+ cells)” value in data set [1] ((+3) gRNA, 10 pmol ssDNA donor) came out at 4.1%; in data set [1] ((+5) gRNA, 10 pmol ssDNA donor) it was 30.8%; in data set [1] ((−3) gRNA, 10 pmol ssDNA donor), 30.0%.

B6: PS79: phosphorothioate 79-mer PAM ssDNA donor, EmGFP, SEQ ID 38 (nucleic acid)
DNA: CATGTGGTCGGGGTAGCGGGCGAAGCACTGCACGCCGTAGGTGAAGGTGGTCACGAGGGTGGGCCAGGGCACGGGCAGC
modifications: 5' phosphate, modified ends, chemistry not fully specified
With B6, the “Avg (% GFP+ cells)” value is reported as 12.94% in data set [1] (setting [3]) and 12.53% in data set [1] (setting [4]).

B7: 79: unmodified 79-mer PAM ssDNA donor, EmGFP, SEQ ID 39 (nucleic acid)
DNA: CATGTGGTCGGGGTAGCGGGCGAAGCACTGCACGCCGTAGGTGAAGGTGGTCACGAGGGTGGGCCAGGGCACGGGCAGC
modifications: DNA, backbone not given here
As to B7, the figures for the “Avg (% GFP+ cells)” value in data set [1] (setting [3]) and in data set [1] (setting [4]) were 7.99% and 7.62%, respectively.

B8: 24-3′: dsDNA donor with 24-base 3′ overhangs, annealed SEQ ID 89 and 90 (nucleic acid)
chain 1: dG*dA*dCdTdAdCdAdAdAdGdAdCdGdAdTdGdAdCdGdAdCdAdAdGdAdAdTdTdCdTdTdAdCdGdGdCdGdTdGdCdAdGdTdGdCdTdTdCdAdGdCdCdGdCdTdAdCdC*dC*dC
chain 2: dA*dA*dGdAdAdTdTdCdTdTdGdTdCdGdTdCdAdTdCdGdTdCdTdTdTdGdTdAdGdTdCdGdGdTdCdAdGdGdGdTdGdGdTdCdAdCdGdAdGdGdGdTdGdGdGdC*dC*dA
modifications: further chemistry not fully specified
In the case of B8, the “Avg (% digestion)” value in data set [2] is listed as 17.3%; in data set [2] (listed as donor DNA molecules with 24-base 3′-protruded ends), “approximately 15%”.
